One experiment deals with rat PD-L1 protein (rat, UniProt D4AE25 19-239). Nature of the experiment: ELISA, coated rat PD-L1.
For a further experiment, the target named is mouse PD-L1 protein (mouse, UniProt Q9EP73 19-239). Nature of the experiment: ELISA, coated mouse PD-L1. In general terms: ELISA stands for enzyme-linked immunosorbent assay.
Experiment [1] concerns the target T1, human PD-L1 over-expressed on CHOK1 cells (human, UniProt Q9NZQ7 19-290).
T1 construct: whole, on cells; also called PDL1-CHOK1 cells
As to the kind of experiment: flow cytometry on PDL1-CHOK1 cells. The method, then:
After washing by PBS, Alexa Fluor® 647 AffiniPure Goat Anti-Human IgG (H+L) was added to each well and incubated at 4° C. for 30 mins. Samples were washed twice with FACS buffer. The mean florescence intensity (MFI) of Alexa Fluor® 647 was evaluated by FACSCanto.

In experiment [2] the target is T2, human PD-L1-Fc protein (human, UniProt Q9NZQ7 19-238).
T2 construct: coating antigen of the ELISAs; also called rhPD-L1-Fc; not shown: Fc
T2 sequence (Q9NZQ7 19-238 limits assumed): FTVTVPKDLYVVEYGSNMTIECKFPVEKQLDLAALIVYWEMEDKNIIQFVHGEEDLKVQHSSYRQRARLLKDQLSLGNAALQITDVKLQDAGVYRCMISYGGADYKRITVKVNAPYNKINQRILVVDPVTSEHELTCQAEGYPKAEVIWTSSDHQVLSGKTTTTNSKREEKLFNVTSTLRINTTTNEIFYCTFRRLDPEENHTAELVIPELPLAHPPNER
As to the kind of experiment: ELISA, coated human PD-L1 (PD-L1-Fc per paragraph 110). The method, then: Briefly, microtiter plates were coated with human PD-L1-Fc protein at 0.5 μg/ml in PBS, 100 μl/well at 4° C. overnight, then blocked with 150 μl/well of 1% BSA. […] The plates were washed with PBS/Tween and then incubated with Mouse-anti-human IgG Fab antibody conjugated with Horse Radish Peroxidase (HRP) for 30 mins at 37° C. After washing, the plates were developed with TMB substrate and analyzed by spectrophotometer at OD 450 nm.
(§1) Briefly, microtiter plates were coated with human, mouse, rat and cynomolgus PD-L1 proteins at 0.5 μg/ml in PBS, 100 μl/well at 4° C. overnight, then blocked with 150 μl/well of 1% BSA. Three-fold dilutions of chimeric antibodies starting from 10 μg/ml were added to each well and incubated for 1 hour at 37° C. The plates were washed with PBS/Tween and then incubate with mouse-anti-human IgG Fab antibody conjugated with Horse Radish Peroxidase (HRP) for 30 mins at 37° C. After washing, the plates were developed with TMB substrate and analyzed by spectrophotometer at OD 450 nm.

Experiment [3] has as its target T3, human PD-L1-his tag protein (human, UniProt Q9NZQ7 19-238).
T3 construct: also called human PD-L1-His protein; recombinant PD-L1 protein; not shown: his tag
Nature of the experiment: SPR (Biacore T200), mAb captured on Protein A chip, PD-L1-his injected. On the procedure: A serial dilution of human PD-L1-his tag protein was injected over captured antibody for 2 mins at a flow rate of 30 μl/min. The antigen was allowed to dissociate for 480-1500 s. All the experiment were carried out on a Biacore T200. Data analysis was carried out using Biacore T200 evaluation software.
A general note: In SPR one partner is held on a chip, and binding of the other changes the refractive index at the surface.

Experiment [4] concerns the target T1, human PD-L1 over-expressed on CHOK1 …. As to the kind of experiment: flow cytometry (MFI) on PDL1-CHOK1 cells; upper right panel (with the Hu67F3G7 antibodies). On the procedure:
To evaluate the antigen binding property, the humanized antibodies were analyzed for their binding to PD-L1 overexpressed on mammalian cells by FACS. Briefly, PDL1-CHOK1 cells were firstly incubated with 3-fold serious diluted humanized antibodies starting at 15 μg/ml at 4° C. for 40 mins. After washed by PBS, the Alexa Fluor® 647 AffiniPure Goat Anti-Human IgG (H+L) antibody was added to each well and incubated at 4° C. for 30 mins. The MFI of Alexa Fluor® 647 was evaluated by FACSCanto.
On the technique in general: A flow cytometer gives signals particle by particle.

In experiment [5] the target is T2, human PD-L1-Fc protein. Nature of the experiment: receptor blocking ELISA: coated human PD-L1-Fc, blocked ligand biotin-labeled human PD-1-Fc (Bio-PD1), OD 450nm; upper left panel (with Hu67F3G7-2). On the procedure: (§2) Briefly, microtiter plates were coated with human PD-L1-Fc protein at 0.5 μg/ml in PBS, 100 μl/well at 4° C. overnight, then blocked with 150 μl/well of 1% BSA at 37° C. for 2 hours. […] The plates were washed with PBS/Tween and then incubated with Streptavidin-HRP for 10 mins at 37° C. After washing, the plates were developed with TMB substrate and analyzed by spectrophotometer at OD 450 nm.

For experiment [6], the target named is T2, human PD-L1-Fc protein. As to the kind of experiment: receptor blocking ELISA: coated human PD-L1-Fc, blocked ligand biotin-labeled human PD-1-Fc (Bio-PD1), OD 450nm; middle left panel (with Hu67F3G7-5). On the procedure: as §2
The target of experiment [7] is T2, human PD-L1-Fc protein. As to the kind of experiment: receptor blocking ELISA: coated human PD-L1-Fc, blocked ligand biotin-labeled human CD80-Fc (Bio-CD80), OD 450nm; upper left panel (with Hu67F3G7-2). The method, then: as §2
Experiment [8] deals with T2, human PD-L1-Fc protein. Nature of the experiment: receptor blocking ELISA: coated human PD-L1-Fc, blocked ligand biotin-labeled human CD80-Fc (Bio-CD80), OD 450nm; middle left panel (with Hu67F3G7-5). On the procedure:
as §2

Experiment [9] addresses T2, human PD-L1-Fc protein. Nature of the experiment: receptor blocking ELISA: coated human PD-L1-Fc, blocked ligand biotin-labeled human CD80-Fc (Bio-CD80), OD 450nm; middle right panel (with Hu67F3G7-7). The method, then: as §2
For experiment [10], the target named is T2, human PD-L1-Fc protein. Nature of the experiment: ELISA, antibody titrated on coated human PD-L1-Fc, OD 450nm; lower left panel (with Hu67F3G7-13 to -18); the table row is headed 'IC50' on the sheet although the curves rise. On the procedure: as §1, with “To evaluate antigen binding activity, the humanized antibodies were subjected to ELISA test. Briefly,” for “Briefly,”, “with human PD-L1-Fc protein” for “with human, mouse, rat and cynomolgus PD-L1 proteins”, “with 200” for “with 150”, “of humanized” for “of chimeric”, “then incubated” for “then incubate”, “for 1 hour” for “for 30 mins”

T3 sequence (Q9NZQ7 19-238 limits assumed): as above
T1 sequence (Q9NZQ7 19-290): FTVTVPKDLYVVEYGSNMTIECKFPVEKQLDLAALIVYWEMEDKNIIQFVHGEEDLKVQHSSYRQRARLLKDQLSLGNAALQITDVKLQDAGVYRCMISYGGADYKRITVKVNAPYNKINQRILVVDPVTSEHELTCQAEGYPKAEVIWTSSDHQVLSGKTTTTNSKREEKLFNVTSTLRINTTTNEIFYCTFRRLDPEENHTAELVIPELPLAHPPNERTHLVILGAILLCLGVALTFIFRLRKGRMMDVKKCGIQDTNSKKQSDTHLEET
Chain of rat PD-L1 protein (D4AE25 entry or part of it limits assumed): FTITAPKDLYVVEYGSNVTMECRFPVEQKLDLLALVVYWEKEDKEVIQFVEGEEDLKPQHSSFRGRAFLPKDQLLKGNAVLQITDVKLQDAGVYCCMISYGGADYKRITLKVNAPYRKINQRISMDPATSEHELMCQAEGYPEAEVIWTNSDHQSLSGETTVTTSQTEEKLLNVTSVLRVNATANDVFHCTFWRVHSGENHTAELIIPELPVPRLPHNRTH
Chain of mouse PD-L1 protein (Q9EP73 19-239 limits assumed): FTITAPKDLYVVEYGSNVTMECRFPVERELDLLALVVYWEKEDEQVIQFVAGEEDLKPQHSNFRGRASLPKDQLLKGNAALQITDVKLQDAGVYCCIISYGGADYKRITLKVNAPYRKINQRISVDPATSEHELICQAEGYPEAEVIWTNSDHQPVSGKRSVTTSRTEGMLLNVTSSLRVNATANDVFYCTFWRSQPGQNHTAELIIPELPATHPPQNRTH

B1: 67F3G7 chimeric mAb (antibody, V domains shown)
VH: QVKLLQSGAALVKPGASVKMSCKASGYIFTDFWVSWVKQSHEKSLEWIGEIYPNSGVSRYNEKFKGRATMTVDKSTSTAYLELSRLTSEDSAIYYCTKYFGYTYWFGYWGQGTLVTVSS
VL: DTVLTQSPALAVSLGQRITISCRASKSVSTYMHWYQQRSGLQPKLLIYSASHLESGVPSRFSGSGSGTDFTLTIDPVEADDIANYYCQQSNELPVTFGSGTKLEIK
notes: chimeric mAb of the hybridoma clone; also called 67F3G7-chimera
With B1, the binding result in the experiment with rat PD-L1 protein and with mouse PD-L1 protein was “no binding (tested: dilutions starting from 10 µg/ml)” throughout. Further, the EC50 (in general, the concentration needed to bring the measured effect to its halfway point) in experiment [1] was 0.103 nM; with human PD-L1-Fc protein [2], 0.0108 µg/mL; in experiment [4] it was 0.0577 nM; in the experiment with human PD-L1-Fc protein [10] it was 0.0157 µg/mL. The Kd (in general, the free concentration of one partner at which half of the binding sites on the other are occupied at equilibrium, for simple one-to-one binding) in [3] was 0.0244 nM. The koff (commonly the first-order rate constant of dissociation) in experiment [3] was 6.19e-05 s⁻¹. For the same molecule, in experiment [3], the association rate constant (kon) (in general, the rate constant with which the complex forms) was 2.54e+06 M⁻¹ s⁻¹. Also, the IC50 (as a rule, the concentration needed to halve the response being measured) with human PD-L1-Fc protein [5] was 0.149 µg/mL; with human PD-L1-Fc protein [6], 0.149 µg/mL; with human PD-L1-Fc protein [7], 0.256 µg/mL; with human PD-L1-Fc protein [8], 0.274 µg/mL; in the experiment with human PD-L1-Fc protein [9], 0.283 µg/mL.

For the origin of these results see patent US20230287125A1 (LEPU BIOPHARMA, published 2023).
